± gives the uncertainty stated by the source.

The values below come from the Human Domainome abundance scans (Beltran et al. 2025).

B1: Intersectin-1, residues 909 to 971; numbered along this chain, Q15811 (parent)
chain: QGEKVEGLQAQALYPWRAKKDNHLNFNKNDVITVLEQQDMWWFGEVQGQKGWFPKSYVKLISG

In the data set the parent is B1. Put plainly: abundance fitness (aPCA) (normalised: wild type 0, dead -1); higher = more abundant; growth selection in yeast, the domain comes from the species named. The following applies: Homo sapiens.
Take QGEKVEGLQAQALYPWRAKKDNHWNFNKNDVITVLEQQDMWWFGEVQGQKGWFPKSYVKLISG [L24W]: the abundance fitness was -0.778 ± 0.16.

As for QGEKVEGLQAQALYPWRAKKDNHQNFNKNDVITVLEQQDMWWFGEVQGQKGWFPKSYVKLISG [L24Q], the abundance fitness was -0.694 ± 0.27.

Turning to QGEKVEGLQAQALYPWRAKKDNHPNFNKNDVITVLEQQDMWWFGEVQGQKGWFPKSYVKLISG [L24P], the abundance fitness was -0.383 ± 0.2.

Consider QGEKVEGLQAQALYPWRAKKDNHSNFNKNDVITVLEQQDMWWFGEVQGQKGWFPKSYVKLISG [L24S], for which the abundance fitness was -0.867 ± 0.14.

For QGEKVEGLQAQALYPWRAKKDNHNNFNKNDVITVLEQQDMWWFGEVQGQKGWFPKSYVKLISG [L24N], the abundance fitness is -0.563 ± 0.19.

Turning to QGEKVEGLQAQALYPWRAKKDNHTNFNKNDVITVLEQQDMWWFGEVQGQKGWFPKSYVKLISG [L24T], the abundance fitness was -0.694 ± 0.15.

Take QGEKVEGLQAQALYPWRAKKDNHLNRNKNDVITVLEQQDMWWFGEVQGQKGWFPKSYVKLISG [F26R]: the abundance fitness was -1.01 ± 0.22.

On to QGEKVEGLQAQALYPWRAKKDNHLNENKNDVITVLEQQDMWWFGEVQGQKGWFPKSYVKLISG [F26E], for which the abundance fitness is -1.07 ± 0.39.

QGEKVEGLQAQALYPWRAKKDNHLNVNKNDVITVLEQQDMWWFGEVQGQKGWFPKSYVKLISG [F26V]: the abundance fitness was -0.335 ± 0.12.

For QGEKVEGLQAQALYPWRAKKDNHLNLNKNDVITVLEQQDMWWFGEVQGQKGWFPKSYVKLISG [F26L], the abundance fitness was -0.078 ± 0.11.

Consider QGEKVEGLQAQALYPWRAKKDNHLNSNKNDVITVLEQQDMWWFGEVQGQKGWFPKSYVKLISG [F26S], for which the abundance fitness was -0.866 ± 0.29.

On to QGEKVEGLQAQALYPWRAKKDNHLNCNKNDVITVLEQQDMWWFGEVQGQKGWFPKSYVKLISG [F26C], for which the abundance fitness is -0.723 ± 0.35.

Turning to QGEKVEGLQAQALYPWRAKKDNHLNINKNDVITVLEQQDMWWFGEVQGQKGWFPKSYVKLISG [F26I], the abundance fitness was -0.072 ± 0.22.

Take QGEKVEGLQAQALYPWRAKKDNHLNMNKNDVITVLEQQDMWWFGEVQGQKGWFPKSYVKLISG [F26M]: the abundance fitness worked out at 0.014 ± 0.48.

Turning to QGEKVEGLQAQALYPWRAKKDNHLNQNKNDVITVLEQQDMWWFGEVQGQKGWFPKSYVKLISG [F26Q], the abundance fitness is -1 ± 0.21.

On to QGEKVEGLQAQALYPWRAKKDNHLNGNKNDVITVLEQQDMWWFGEVQGQKGWFPKSYVKLISG [F26G], for which the abundance fitness was -1.02 ± 0.19.

Take QGEKVEGLQAQALYPWRAKKDNHLNANKNDVITVLEQQDMWWFGEVQGQKGWFPKSYVKLISG [F26A]: the abundance fitness is -0.767 ± 0.23.

QGEKVEGLQAQALYPWRAKKDNHLGFNKNDVITVLEQQDMWWFGEVQGQKGWFPKSYVKLISG [N25G]: the abundance fitness was -0.081 ± 0.052.

With QGEKVEGLQAQALYPWRAKKDNHLRFNKNDVITVLEQQDMWWFGEVQGQKGWFPKSYVKLISG [N25R], the abundance fitness was -0.177 ± 0.13.

For the variant QGEKVEGLQAQALYPWRAKKDNHLEFNKNDVITVLEQQDMWWFGEVQGQKGWFPKSYVKLISG [N25E], the abundance fitness is -0.08 ± 0.13.

On to QGEKVEGLQAQALYPWRAKKDNHLMFNKNDVITVLEQQDMWWFGEVQGQKGWFPKSYVKLISG [N25M], for which the abundance fitness was -0.087 ± 0.21.

As to QGEKVEGLQAQALYPWRAKKDNHLWFNKNDVITVLEQQDMWWFGEVQGQKGWFPKSYVKLISG [N25W], the abundance fitness was -0.462 ± 0.17.

For the variant QGEKVEGLQAQALYPWRAKKDNHLSFNKNDVITVLEQQDMWWFGEVQGQKGWFPKSYVKLISG [N25S], the abundance fitness is -0.074 ± 0.14.

QGEKVEGLQAQALYPWRAKKDNHLKFNKNDVITVLEQQDMWWFGEVQGQKGWFPKSYVKLISG [N25K]: the abundance fitness came out at 0.115 ± 0.31.

On to QGEKVEGLQAQALYPWRAKKDNHLCFNKNDVITVLEQQDMWWFGEVQGQKGWFPKSYVKLISG [N25C], for which the abundance fitness was -0.057 ± 0.28.

Regarding QGEKVEGLQAQALYPWRAKKDNHLLFNKNDVITVLEQQDMWWFGEVQGQKGWFPKSYVKLISG [N25L], the abundance fitness is -0.28 ± 0.15.

QGEKVEGLQAQALYPWRAKKDNHLDFNKNDVITVLEQQDMWWFGEVQGQKGWFPKSYVKLISG [N25D]: the abundance fitness was -0.066 ± 0.1.

For the variant QGEKVEGLQAQALYPWRAKKDNHLFFNKNDVITVLEQQDMWWFGEVQGQKGWFPKSYVKLISG [N25F], the abundance fitness is -0.491 ± 0.23.

With QGEKVEGLQAQALYPWRAKKDNHLHFNKNDVITVLEQQDMWWFGEVQGQKGWFPKSYVKLISG [N25H], the abundance fitness was 0.009 ± 0.5.

As for QGEKVEGLQAQALYPWRAKKDNHLVFNKNDVITVLEQQDMWWFGEVQGQKGWFPKSYVKLISG [N25V], the abundance fitness was -0.207 ± 0.076.

QGEKVEGLQAQALYPWRAKKDNHLPFNKNDVITVLEQQDMWWFGEVQGQKGWFPKSYVKLISG [N25P]: the abundance fitness is -0.451 ± 0.37.

With QGEKVEGLQAQALYPWRAKKDNHLAFNKNDVITVLEQQDMWWFGEVQGQKGWFPKSYVKLISG [N25A], the abundance fitness is -0.064 ± 0.1.

QGEKVEGLQAQALYPWRAKKDNHLNFNKMDVITVLEQQDMWWFGEVQGQKGWFPKSYVKLISG [N29M]: the abundance fitness is -0.034 ± 0.12.

Turning to QGEKVEGLQAQALYPWRAKKDNHLNFNKRDVITVLEQQDMWWFGEVQGQKGWFPKSYVKLISG [N29R], the abundance fitness is -0.172 ± 0.075.

On to QGEKVEGLQAQALYPWRAKKDNHLNFNKDDVITVLEQQDMWWFGEVQGQKGWFPKSYVKLISG [N29D], for which the abundance fitness was -0.081 ± 0.13.

Regarding QGEKVEGLQAQALYPWRAKKDNHLNFNKKDVITVLEQQDMWWFGEVQGQKGWFPKSYVKLISG [N29K], the abundance fitness is -0.324 ± 0.3.

In the case of QGEKVEGLQAQALYPWRAKKDNHLNFNKLDVITVLEQQDMWWFGEVQGQKGWFPKSYVKLISG [N29L], the abundance fitness is -0.269 ± 0.075.

Regarding QGEKVEGLQAQALYPWRAKKDNHLNFNKYDVITVLEQQDMWWFGEVQGQKGWFPKSYVKLISG [N29Y], the abundance fitness was -0.282 ± 0.38.

On to QGEKVEGLQAQALYPWRAKKDNHLNFNKSDVITVLEQQDMWWFGEVQGQKGWFPKSYVKLISG [N29S], for which the abundance fitness was -0.128 ± 0.091.

For QGEKVEGLQAQALYPWRAKKDNHLNFNKWDVITVLEQQDMWWFGEVQGQKGWFPKSYVKLISG [N29W], the abundance fitness was -0.345 ± 0.1.

For the variant QGEKVEGLQAQALYPWRAKKDNHLNFNKGDVITVLEQQDMWWFGEVQGQKGWFPKSYVKLISG [N29G], the abundance fitness was -0.031 ± 0.067.

As for QGEKVEGLQAQALYPWRAKKDNHLNFNKEDVITVLEQQDMWWFGEVQGQKGWFPKSYVKLISG [N29E], the abundance fitness was -0.024 ± 0.18.
